Reference: US20190201542A1 (AbbVie / Abbott, published 2019)

B1: SC16.34 (antibody, V domains shown)
VH: QIQLVQSGPELKRPGETVKISCKASGYTFTNYGMNWVKQAPGKGLKWMGWINTYTGDPTYADDFKGRFAFSLETSASTAYLQINNLKNEDTATYFCARIGGNSPSDYWGQGTSLTVSS
VL: SIVMTQTPKFLLVSAGDRVTITCKASQSVSNDVAWYQQKPGQSPKLLIYYASNRYSGVPDRFTGSGYGTDFTFTISTVQAEDLAVYFCQQDYSSPWTFGGGTKLEIK
notes: murine mAb
B2: SC16.56 (antibody, V domains shown)
VH: QIQLVQSGPELKKPGETVKISCKASGYTFTNYGMNWVKQAPGKGLKWMAWINTYTGEPTYADDFKGRFAFSLETSASTASLQIINLKNEDTATYFCARIGDSSPSDYWGQGTTLTVSS
VL: SIVMTQTPKFLLVSAGDRVTITCKASQSVSNDVVWYQQKPGQSPKLLIYYASNRYTGVPDRFAGSGYGTDFSFTISTVQAEDLAVYFCQQDYTSPWTFGGGTKLEIR
notes: murine mAb
B3: SC72.2 (antibody, V domains shown)
VH: QVQLQQSGAELVRPGASVTLSCKASGYTFIDYEMHWVKQTPVHGLEWIGAIDPETGGTTYNQNFKGKATLTADKSSNTAYMELRSLTSGDSAVYYCSRGGLDYWGQGTTLTVSS
VL: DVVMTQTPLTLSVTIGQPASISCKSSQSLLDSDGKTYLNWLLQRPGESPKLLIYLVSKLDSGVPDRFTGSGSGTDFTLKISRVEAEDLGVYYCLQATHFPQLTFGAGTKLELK
notes: murine mAb; also called anti-ASCL1 antibody clone SC72.2
B4: SC16.23 (antibody, V domains shown)
VH: QVTLKESGPGILQPSQTLSLTCSFSGFSLSTSNTGIGWIRQPSGTGLEWLAHIWWNDDKYYNPSLKSRLTISKETSNNQVFLKITNVDTADTASYFCVQIGRDYSNYAWYFDVWGAGTTVTVSS
VL: QIVLTQSPAIMSASPGEKVTLTCSASSSVSSRYLYWYQQKPGSSPKLWIYSTSNLASGVPARFSGSGSGTSYSLIISSMEAEDAASYFCHQWSNYPLTFGAGTKLELK
notes: murine mAb

Tests used:
human DLL3 = molecular target: T1, human DLL3 (human, UniProt Q9NYJ7 27-492, limits assumed); test: screen on immobilized hDLL3 or h293-hDLL3 cells
T1 construct: also called hDLL3; DLL3 protein
T1 sequence: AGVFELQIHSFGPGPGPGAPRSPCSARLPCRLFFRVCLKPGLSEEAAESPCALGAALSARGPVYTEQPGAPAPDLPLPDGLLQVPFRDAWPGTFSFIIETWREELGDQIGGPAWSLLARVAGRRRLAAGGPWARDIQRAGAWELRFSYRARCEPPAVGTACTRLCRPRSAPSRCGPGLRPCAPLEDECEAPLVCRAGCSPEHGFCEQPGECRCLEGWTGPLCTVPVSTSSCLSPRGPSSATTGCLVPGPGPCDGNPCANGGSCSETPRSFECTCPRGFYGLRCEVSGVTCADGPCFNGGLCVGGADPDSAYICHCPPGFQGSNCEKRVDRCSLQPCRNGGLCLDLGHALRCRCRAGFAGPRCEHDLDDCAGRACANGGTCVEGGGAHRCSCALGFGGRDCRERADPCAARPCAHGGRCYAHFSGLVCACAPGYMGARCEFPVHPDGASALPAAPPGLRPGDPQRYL
In short: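 Hybridoma supernatants from single cells of mice immunized with human DLL3 were screened after 10 days in culture. Binding by flow cytometry was scored positive when above the control. In the solid-phase ELISA, plates coated with DLL3-His at 0.5 μg/ml were probed with HRP anti-mouse IgG and TMB and read at OD 450.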

[1] = molecular target: T2, DLL3 extracellular domain (amino acids 27-466) (human, UniProt Q9NYJ7 27-466); test: fine epitope mapping (phage display peptides or yeast display of DLL3 ECD mutants)
T2 construct: also called DLL3 ECD; wild type DLL3 ECD
T2 sequence: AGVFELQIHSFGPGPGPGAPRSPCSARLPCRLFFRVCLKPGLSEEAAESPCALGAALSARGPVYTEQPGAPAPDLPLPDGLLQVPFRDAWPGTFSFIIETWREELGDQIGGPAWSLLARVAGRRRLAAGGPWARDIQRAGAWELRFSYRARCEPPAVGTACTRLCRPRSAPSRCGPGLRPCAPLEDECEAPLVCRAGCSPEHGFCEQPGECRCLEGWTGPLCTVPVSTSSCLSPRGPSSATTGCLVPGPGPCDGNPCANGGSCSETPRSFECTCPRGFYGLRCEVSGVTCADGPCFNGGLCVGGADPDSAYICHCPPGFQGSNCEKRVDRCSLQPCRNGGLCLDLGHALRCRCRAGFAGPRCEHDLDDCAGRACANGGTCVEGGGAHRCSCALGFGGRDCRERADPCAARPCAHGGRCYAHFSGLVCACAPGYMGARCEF
Description: Fine epitope mapping was further performed on selected antibodies using one of two methods. The first method employed the Ph.D.-12 phage display peptide library kit (New England Biolabs) which was used in accordance with the manufacturer's instructions. The antibody for epitope mapping was coated overnight at 50 μg/mL in 3 mL 0.1 M sodium bicarbonate solution, pH 8, onto a Nunc MaxiSorp tube (Nunc). The tube was blocked with 3% BSA solution in bicarbonate solution. Then, […] input phage in PBS+0.1% Tween-20 was allowed to bind, followed by ten consecutive washes with 0.1% Tween-20 to wash away non-binding phage. Remaining phage were eluted with 1 mL 0.2 M glycine for 10 minutes at room temperature with gentle agitation, followed by neutralization with 150 μL 1M Tris-HCl pH 9. Eluted phage were amplified and panned again with 10¹¹ input phage, using 0.5% Tween-20 during the wash steps to increase selection stringency. DNA from 24 plaques of the eluted phage from the second round was isolated using the Qiaprep M13 Spin kit (Qiagen) and sequenced. Binding of clonal phage was confirmed using an ELISA assay, where the mapped antibody or a control antibody was coated onto an ELISA plate, blocked, and exposed to each phage clone. Phage binding was detected using horseradish peroxidase conjugated anti-M13 antibody (GE Healthcare), and the 1-Step Turbo TMB ELISA solution (Pierce). Phage peptide sequences from specifically binding phage were aligned using Vector NTI (Life Technologies) against the antigen ECD peptide sequence to determine the epitope of binding.
Alternatively, a yeast display method (Chao et al., 2007, PMID: 17406305) was used to map the epitopes of selected antibodies. Libraries of DLL3 ECD mutants were generated with error prone PCR using nucleotide analogues 8-oxo-2′deoxyguanosine-5′-triphosphate and 2′-deoxy-p-nucleoside-5′triphosphate (TriLink Bio) for a target mutagenesis rate of one amino acid mutation per clone. These were transformed into a yeast display format. […]

[2] = molecular target: T3, hASCL1 in 293 cells engineered to express ASCL1 (293-ASCL1) (human, UniProt P50553 1-236); test: immunohistochemistry on FFPE sections, antibody at 10 ug/ml
T3 construct: whole, on cells; also called DDDK-tagged hASCL1 from pLMEGPA-hASCL1-NFlag
T3 sequence (looked up): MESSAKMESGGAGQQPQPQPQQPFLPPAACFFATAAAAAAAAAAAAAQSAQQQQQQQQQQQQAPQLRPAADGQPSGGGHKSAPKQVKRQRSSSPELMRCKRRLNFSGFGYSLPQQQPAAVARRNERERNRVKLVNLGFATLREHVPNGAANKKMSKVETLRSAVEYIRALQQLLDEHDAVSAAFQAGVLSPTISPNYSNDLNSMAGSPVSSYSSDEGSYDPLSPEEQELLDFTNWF
Description: IHC was performed essentially as follows. Planar sections of formalin fixed and paraffin embedded (FFPE) tissues were cut and mounted on glass microscope slides. After xylene de-paraffinization 5 μm sections were pre-treated with Antigen Retrieval Solution (Dako) for 20 mins. at 99° C., cooled to 75° C. and then treated with 0.3% hydrogen peroxide in PBS followed by Avidin/Biotin Blocking Solution (Vector Laboratories). FFPE slides were then blocked with 10% horse serum in 3% BSA in PBS buffer and incubated with a primary anti-ASCL1 antibody (clone SC72.2), diluted to 10 μg/ml in 3% BSA/PBS, for 30 mins. at room temperature. The FFPE slides were incubated with biotin-conjugated horse anti-mouse antibody (Vector Laboratories), diluted to 2.5 μg/ml in 3% BSA/PBS, for 30 mins. at room temperature followed by incubation in streptavidin-HRP (ABC Elite Kit; Vector Laboratories). Chromogenic detection was developed with 3,3′-diaminobenzidine (Thermo Scientific) for 5 mins. at room temperature and tissues were counterstained with Meyer's hematoxylin (IHC World), washed with alcohol and immersed in xylene. Sections were then viewed by brightfield microscopy and ASCL1 expression was noted.
PDX tumors were stained by IHC (FIG. 12) and ASCL1 protein expression by IHC correlates with the expected ASCL1 mRNA expression based on microarray results.

human ASCL1 = molecular target: T4, human ASCL1 (human, UniProt P50553 1-236, limits assumed); test: screen on immobilized hASCL1 or h293-hASCL1 cells
T4 construct: Transcription factor; also called hASCL1; immobilized human ASCL1
T4 sequence (looked up): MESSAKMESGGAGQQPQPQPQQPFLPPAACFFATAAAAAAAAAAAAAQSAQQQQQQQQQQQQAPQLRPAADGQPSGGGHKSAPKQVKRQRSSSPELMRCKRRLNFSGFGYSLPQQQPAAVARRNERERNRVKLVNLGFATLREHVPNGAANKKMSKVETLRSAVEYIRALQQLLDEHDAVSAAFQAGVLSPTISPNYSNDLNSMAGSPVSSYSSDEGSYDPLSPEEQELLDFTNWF

Binder	binding result (human DLL3)	binding result [1]	binding result [2]	binding result (human ASCL1)
B1	binds	binds	–	–
B2	binds	binds	–	–
B3	–	–	binds	binds
B4	binds	binds	–	–
